Drawing on patent US20240318159, this text covers activity for one sequence.

The test system of this series is mND1 TALE_L-BE_41-N(G108) + TALE_R-BE_41-C(G43) split base editor (synthetic). Description: cell_activity. The conditions noted are these: m.2820G>A allele in mouse cells.

Turning to “CATTAGTAGAACGCA (double strand) [mND1 G2820 target]”, the activity amounted to 56.4%.
